Data reported in patent US20140046032A1 (Sanofi, published 2014).

T1: recombinant murine FcγRI (murine, UniProt P26151 25-297)
T1 construct: Bought
T1 sequence (looked up): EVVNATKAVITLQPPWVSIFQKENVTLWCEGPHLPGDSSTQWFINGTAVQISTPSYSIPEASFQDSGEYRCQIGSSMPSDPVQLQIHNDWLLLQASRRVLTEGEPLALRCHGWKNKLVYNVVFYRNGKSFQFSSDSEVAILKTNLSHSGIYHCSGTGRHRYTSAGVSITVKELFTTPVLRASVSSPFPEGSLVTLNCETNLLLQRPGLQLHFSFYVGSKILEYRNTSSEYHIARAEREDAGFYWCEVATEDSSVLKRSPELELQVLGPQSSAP

T2: recombinant murine FcγRIV (murine, UniProt A0A0B4J1G0 21-203)
T2 construct: Bought
T2 sequence: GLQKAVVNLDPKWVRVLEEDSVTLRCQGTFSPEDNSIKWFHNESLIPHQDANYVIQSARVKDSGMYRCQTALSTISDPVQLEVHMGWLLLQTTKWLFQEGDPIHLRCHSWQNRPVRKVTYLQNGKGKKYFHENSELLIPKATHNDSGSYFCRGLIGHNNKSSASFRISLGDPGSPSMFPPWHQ

T3: recombinant murine FcγRIII (murine, UniProt P08508 31-215)
T3 construct: Bought
T3 sequence (looked up): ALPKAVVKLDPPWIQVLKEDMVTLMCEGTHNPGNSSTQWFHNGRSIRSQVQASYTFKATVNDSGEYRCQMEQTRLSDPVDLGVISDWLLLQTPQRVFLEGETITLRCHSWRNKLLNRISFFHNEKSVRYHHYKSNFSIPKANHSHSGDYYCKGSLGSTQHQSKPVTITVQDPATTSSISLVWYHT

T4: recombinant murine FcγRIIb (murine, UniProt P08101 30-207, limits assumed)
T4 construct: Bought
T4 sequence (looked up): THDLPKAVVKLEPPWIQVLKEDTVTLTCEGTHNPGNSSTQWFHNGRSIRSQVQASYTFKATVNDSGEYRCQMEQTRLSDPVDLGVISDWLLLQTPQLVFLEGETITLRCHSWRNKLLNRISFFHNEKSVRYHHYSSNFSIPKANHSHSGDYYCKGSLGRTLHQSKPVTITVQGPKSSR


What was measured:
[1] = target: lectin Maackia amurensis (MAA) (Maackia amurensis); assay: enzyme-linked lectin assay (ELLA) with Maackia amurensis lectin (MAA, α-2,3 sialic acid); signal against µg of mAb, linear axis
recombinant murine FcγRI = target: T1, recombinant murine FcγRI; assay: SPR, Biacore 3000
[2] = target: T2, recombinant murine FcγRIV; assay: SPR, Biacore 3000
[3] = target: T3, recombinant murine FcγRIII; assay: SPR, Biacore 3000
[4] = target: T4, recombinant murine FcγRIIb; assay: SPR, Biacore 3000

lectin Maackia amurensis (MAA) (Maackia amurensis), sequence (P0DKL3 30-278): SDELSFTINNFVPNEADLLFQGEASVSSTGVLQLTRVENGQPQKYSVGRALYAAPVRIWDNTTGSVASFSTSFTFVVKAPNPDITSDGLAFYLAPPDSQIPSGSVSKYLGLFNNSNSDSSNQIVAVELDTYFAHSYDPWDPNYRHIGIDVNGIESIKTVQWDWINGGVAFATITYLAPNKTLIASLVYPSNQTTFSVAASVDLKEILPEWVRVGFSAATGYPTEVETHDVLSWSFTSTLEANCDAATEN

EC50 (read off the curve) [1] [µg]	binding result (recombinant murine FcγRI)	binding result [2]	Kd [3] [nM]	Kd [4] [nM]	Molecule
0.2	–	–	–	–	fetuin
–	no binding	no binding	–	–	antiAbeta_13C3_D257A mAb produced without co-expression of SIAT1 and B4GT1 (batch LP10116, low sialic acid content) (antibody, mouse IgG1, kappa, Fc N-glycan G0F/G0F, low sialic acid content, also called low sialylated antiAbeta-13C3_D257A) heavy: QVQLQQSGPELVRPGVSVKISCKGSGYTFTDYAMHWVKQSHAKSLEWIGVISTKYGKTNYNQKFKGKATMTVDKSSSTAYMELARLTSEDSAIYYCARGDDGYSWGQGTSVTVSSAKTTPPSVYPLAPGSAAQTNSMVTLGCLVKGYFPEPVTVTWNSGSLSSGVHTFPAVLQSDLYTLSSSVTVPSSTWPSETVTCNVAHPASSTKVDKKIVPRDCGCKPCICTVPEVSSVFIFPPKPKDVLTITLTPKVTCVVVAISKDDPEVQFSWFVDDVEVHTAQTQPREEQFNSTFRSVSELPIMHQDWLNGKEFKCRVNSAAFPAPIEKTISKTKGRPKAPQVYTIPPPKEQMAKDKVSLTCMITDFFPEDITVEWQWNGQPAENYKNTQPIMDTDGSYFVYSKLNVQKSNWEAGNTFTCSVLHEGLHNHHTEKSLSHSPG light: DVVMTQTPLSLPVSLGDQASISCRSGQSLVHSNGNTYLHWYLQKPGQSPKLLIYTVSNRFSGVPDRFSGSGSGSDFTLKISRVEAEDLGVYFCSQNTFVPWTFGGGTKLEIKRADAAPTVSIFPPSSEQLTSGGASVVCFLNNFYPKDINVKWKIDGSERQNGVLNSWTDQDSKDSTYSMSSTLTLTKDEYERHNSYTCEATHKTSTSPIVKSFNRNEC

Further lines, the molecule ahead of its results:

Molecule	EC50 (read off the curve) [1] [µg]	binding result (recombinant murine FcγRI)	binding result [2]	Kd [3] [nM]	Kd [4] [nM]
α-2,6 sialylated antiAbeta-13C3_D257A mAb (co-expressed with SIAT1 and B4GT1) (antibody, mouse IgG1, kappa, Fc N-glycan essentially α-2,6-sialylated, G2F/G2F + 4 NeuNAc per mAb (very high sialic acid content), Small-scale batch LP10094, large-scale batch LP10104 and a CHO-produced batch are treated as this one molecule; also called antiAbeta_13C3_D257A batch LP10104; batch LP10094) heavy: QVQLQQSGPELVRPGVSVKISCKGSGYTFTDYAMHWVKQSHAKSLEWIGVISTKYGKTNYNQKFKGKATMTVDKSSSTAYMELARLTSEDSAIYYCARGDDGYSWGQGTSVTVSSAKTTPPSVYPLAPGSAAQTNSMVTLGCLVKGYFPEPVTVTWNSGSLSSGVHTFPAVLQSDLYTLSSSVTVPSSTWPSETVTCNVAHPASSTKVDKKIVPRDCGCKPCICTVPEVSSVFIFPPKPKDVLTITLTPKVTCVVVAISKDDPEVQFSWFVDDVEVHTAQTQPREEQFNSTFRSVSELPIMHQDWLNGKEFKCRVNSAAFPAPIEKTISKTKGRPKAPQVYTIPPPKEQMAKDKVSLTCMITDFFPEDITVEWQWNGQPAENYKNTQPIMDTDGSYFVYSKLNVQKSNWEAGNTFTCSVLHEGLHNHHTEKSLSHSPG light: DVVMTQTPLSLPVSLGDQASISCRSGQSLVHSNGNTYLHWYLQKPGQSPKLLIYTVSNRFSGVPDRFSGSGSGSDFTLKISRVEAEDLGVYFCSQNTFVPWTFGGGTKLEIKRADAAPTVSIFPPSSEQLTSGGASVVCFLNNFYPKDINVKWKIDGSERQNGVLNSWTDQDSKDSTYSMSSTLTLTKDEYERHNSYTCEATHKTSTSPIVKSFNRNEC	–	no binding	no binding	–	–
antiAbeta_13C3 mAb (murine, batch LP09009, low sialic acid content) (antibody, mouse IgG1, kappa, Fc N-glycan with low sialic acid content, Murine IgG1 heavy chain, murine Ckappa light chain; also called antiAbeta-13C13 mAb; original antiAbeta-13C3) heavy: QVQLQQSGPELVRPGVSVKISCKGSGYTFTDYAMHWVKQSHAKSLEWIGVISTKYGKTNYNQKFKGKATMTVDKSSSTAYMELARLTSEDSAIYYCARGDDGYSWGQGTSVTVSSAKTTPPSVYPLAPGSAAQTNSMVTLGCLVKGYFPEPVTVTWNSGSLSSGVHTFPAVLQSDLYTLSSSVTVPSSTWPSETVTCNVAHPASSTKVDKKIVPRDCGCKPCICTVPEVSSVFIFPPKPKDVLTITLTPKVTCVVVDISKDDPEVQFSWFVDDVEVHTAQTQPREEQFNSTFRSVSELPIMHQDWLNGKEFKCRVNSAAFPAPIEKTISKTKGRPKAPQVYTIPPPKEQMAKDKVSLTCMITDFFPEDITVEWQWNGQPAENYKNTQPIMDTDGSYFVYSKLNVQKSNWEAGNTFTCSVLHEGLHNHHTEKSLSHSPG light: DVVMTQTPLSLPVSLGDQASISCRSGQSLVHSNGNTYLHWYLQKPGQSPKLLIYTVSNRFSGVPDRFSGSGSGSDFTLKISRVEAEDLGVYFCSQNTFVPWTFGGGTKLEIKRADAAPTVSIFPPSSEQLTSGGASVVCFLNNFYPKDINVKWKIDGSERQNGVLNSWTDQDSKDSTYSMSSTLTLTKDEYERHNSYTCEATHKTSTSPIVKSFNRNEC	–	no binding	no binding	471	354
